Experimental data published in publication PMC6389498.

Molecular target: PrfA WT (Listeria monocytogenes, UniProt P22262 1-237)
Experiment: BLI; free L-Leu, PrfA:ligand 1:100, no inhibition
Settings: protein: recombinant; tags: His-tag (pET28a); chain copies: 2; blunt

Chain of PrfA WT (P22262 whole entry): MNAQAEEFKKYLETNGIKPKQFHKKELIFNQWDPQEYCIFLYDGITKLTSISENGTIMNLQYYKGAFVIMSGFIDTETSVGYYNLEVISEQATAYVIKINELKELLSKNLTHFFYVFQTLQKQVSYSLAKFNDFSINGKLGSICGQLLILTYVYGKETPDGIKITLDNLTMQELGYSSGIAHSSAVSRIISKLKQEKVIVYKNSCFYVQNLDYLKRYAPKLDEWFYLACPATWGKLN

B1: PplcA/Phly PrfA box (Phlybox) (dsDNA)
DNA 1: TGTCCCTTTATCGTCGTTAACAAATGTTAATGCCTCGACA
DNA 2: TGTCGAGGCATTAACATTTGTTAACGACGATAAAGGGACA
binding result: binds
